# Laboratory results from doi:10.1101/2021.08.30.21262666.
# How the values were obtained:
# Experiment in all cases: SPR
# [1] = biological target: AZD1061-TM (human)
# [2] = biological target: AZD1061 (cilgavimab) (human)
# [3] = biological target: AZD8895 (tixagevimab) (human)
# [4] = biological target: AZD8895-TM (human)
substance,measurement,setting,value
human neonatal Fc receptor (from UniProt P55899;P61769),Kd,[1],2.36 µM
same,Kd,[2],0.283 µM
same,Kd,[3],0.272 µM
same,Kd,[4],2.4 µM
